Data reported in patent US20220041746A1 (Sanofi, published 2022).
Several values for one entry are separate records, joined by “and”; a condition that tells them apart may be missing. Equal values may be shown once. Read-outs that look alike come from different tables or passages of the source. One block for each binder: values may come before it.

How the values were obtained:
[1] = target: human CD28 (Cambridge Biologics LLC Cat 03-01-0303) (human, UniProt P10747 19-152); assay: ELISA on coated hCD28 IgG4
Procedure: The binding properties of the purified antibodies were analyzed either using ELISA or SPR methods. For ELISA, corresponding antigens for each binding site in the trispecific binding protein were used to coat a 96-well Immuno Plate (Nunc 439454, Thermo Fisher Scientific) overnight at 4° C. using 2 μg/ml each antigen m PBS(pH7.4). The coated plate was blocked using 5% skim milk 12% BSA in PBS for one hour at RT, followed by washing with PBS+[…] three times (Aqua Max 400, Molecular Devices). Serial dilution of antibodies (trispecific and control Abs) were prepared and added onto the ELISA plates (100 μl/well in duplicate), incubated at RT for one hour, followed by washing 5 times with PBS+0.25% Tween 20.
The reaction was terminated by adding 50 μl 1M H₂SO₄, and OD₄₅₀ was measured using SpectraMax M5 (Molecular Devices) and analyzed using SoltMax Pro6.3 software (Molecular Devices). The final data was transferred to GraphPad Prism software (GraphPad Software, CA. USA), and plotted as shown. EC50 was calculated using the same software.

[2] = target: T1, human CD38 expressed on the cell surface (human, UniProt P28907 1-300); assay: flow cytometry on preB::300.19 cells
T1 construct: whole, on cells; also called hCD38-expressing cells; huCD38

[3] = target: T2, cynomolgus monkey CD38 expressed on the cell surface (cynomolgus monkey, UniProt Q5VAN0 1-301); assay: flow cytometry on preB::300.19 cells
T2 construct: whole, on cells; also called cCD38-expressing cells

[4] = target: T2, cynomolgus monkey CD38 expressed on the …; assay: flow cytometry on PréB cCD38 cells
Procedure: (§1) The recombinant cell line was described by J. Deckket et al. 2014 Clin. Cancer Res 20:4574-4583. […] Antibody binding was evaluated after centrifugation and resuspension of cells by adding 200 μl/well PBS 1% BSA and read using Guava® easyCyte™ 8HT Flow Cytometry System. Apparent KD and EC50 values were estimated using BIOST®T-BINDING and BIOST®T-SPEED software, respectively.

[5] = target: T1, human CD38 expressed on the cell surface; assay: flow cytometry on PréB hCD38 cells
Procedure: as §1

[6] = target: T3, recombinant human CD38 (SPR of Example 4) (human, UniProt P28907 45-300, limits assumed); assay: SPR; KD rounded to an integer; first value of the pair, taken for CD3mid
[7] = target: human CD28 (SPR of Example 4) (human, UniProt P10747 19-152, limits assumed); assay: as above
[8] = target: T3, recombinant human CD38 (SPR of Example …); assay: SPR (column 'KD value against rec. protein by SPR (nM)'); first value of the pair, taken for CD3mid
[9] = target: T1, human CD38 expressed on the cell surface; assay: flow cytometry, 'Apparent KD value against rec. cells by FACS (nM)'; single value of the mid/low row, equal to the EC50 of the CD3mid protein in FIG. 6C
Procedure: as §1

hCD38-his (SEQ ID NO: 2) [10] = target: T4, hCD38-his (SEQ ID NO: 2) (human, UniProt P28907 45-300); assay: ELISA on hCD38::Histag
T4 construct: His-tagged soluble protein derived from isoform A; also called human CD38-histag; hCD38::Histag

hCD38-his (SEQ ID NO: 2) [11] = target: T4, hCD38-his (SEQ ID NO: 2); assay: ELISA (column ELISA EC50 nM, hu)
cCD38-his (SEQ ID NO: 4) [12] = target: T5, cCD38-his (SEQ ID NO: 4) (cynomolgus monkey, UniProt Q5VAN0 46-301); assay: ELISA on cynoCD38::Histag [Cont.]
T5 construct: His-tagged soluble protein; also called cyno CD38-histag; cynoCD38::Histag

[13] = target: T6, CD38 isoform A (SEQ ID NO:1) (human, UniProt P28907 45-300); assay: ELISA, plate coated with the CD38 isoform
T6 construct: also called huCD38 isoform A
Procedure: (§2) 96-well plates were coated with either isoform at 0.5 μg/well in PBS and 100 μL/well of antibodies were added to the plate. The plate was incubated at 37° C. for 1 h and washed five times with PBS containing 0.05% Tween-20 (PBS-T). […] Following incubation at 37° C. for 1 h in darkness, plates were washed with PBS-T five times. Antibody binding w as visualized by adding TMB-H2O2 buffer and read at a wavelength of 450 nm. EC50 values were estimated using BIOST@T-SPEED software.

[14] = target: T7, CD38 isoform E (SEQ ID NO:105) (human, UniProt P28907 45-195, limits assumed); assay: ELISA, plate coated with the CD38 isoform
T7 construct: also called huCD38 isoform E
Procedure: as §2

cCD38-his (SEQ ID NO: 4) [15] = target: T5, cCD38-his (SEQ ID NO: 4); assay: ELISA (column ELISA EC50 nM, cyno)
[16] = target: T1, human CD38 expressed on the cell surface; assay: flow cytometry (column FACS EC50 nM, hu)
Procedure: as §1, with “Clin” for “Clin.”, “μL/well” for “μl/well”, “easvCyte™” for “easyCyte™”, “BIOST@T-BINDING” for “BIOST®T-BINDING”, “BIOST@T-SPEED” for “BIOST®T-SPEED”

[17] = target: T1, human CD38 expressed on the cell surface; assay: flow cytometry on preB::300.19 cells, apparent KD
Procedure: as §1, with “Clin” for “Clin.”, “μL/well” for “μl/well”, “easvCyte™” for “easyCyte™”, “BIOST@T-BINDING” for “BIOST®T-BINDING”, “BIOST@T-SPEED” for “BIOST®T-SPEED”

[18] = target: T2, cynomolgus monkey CD38 expressed on the …; assay: flow cytometry on preB::300.19 cells, apparent KD
Procedure: as §1, with “Clin” for “Clin.”, “μL/well” for “μl/well”, “easvCyte™” for “easyCyte™”, “BIOST@T-BINDING” for “BIOST®T-BINDING”, “BIOST@T-SPEED” for “BIOST®T-SPEED”

[19] = target: T1, human CD38 expressed on the cell surface; assay: flow cytometry on preB::300.19 cells, apparent KD; remark: listed apart in the source
Procedure: as §1

[20] = target: T2, cynomolgus monkey CD38 expressed on the …; assay: flow cytometry on preB::300.19 cells, apparent KD; remark: listed apart in the source
Procedure: as §1

[21] = target: T2, cynomolgus monkey CD38 expressed on the …; assay: flow cytometry (column FACS EC50 nM, cyno)
Procedure: as §1, with “Clin” for “Clin.”, “μL/well” for “μl/well”, “easvCyte™” for “easyCyte™”, “BIOST@T-BINDING” for “BIOST®T-BINDING”, “BIOST@T-SPEED” for “BIOST®T-SPEED”

[22] = target: T1, human CD38 expressed on the cell surface; assay: flow cytometry (FACS) on 300.19 PreB hCD38 cells
Procedure: as §1, with “Clin” for “Clin.”, “μL/well” for “μl/well”, “easvCyte™” for “easyCyte™”, “BIOST@T-BINDING” for “BIOST®T-BINDING”, “BIOST@T-SPEED” for “BIOST®T-SPEED”

hCD38-his (SEQ ID NO: 2) [23] = target: T4, hCD38-his (SEQ ID NO: 2); assay: SPR, mAb captured via anti-human Fc, soluble CD38-his injected
Procedure: (§3) The binding properties of the anti-huCD38 mabs were evaluated using a BIAcore 2000 (BIAcore Inc., Uppsala, Ni). […] The surface was regenerated between injections using 30 μL of 50 mM NaOH-1 M NaCl. Individual sensorgrams wore analyzed using BIAsimulation software.

cCD38-his (SEQ ID NO: 4) [24] = target: T5, cCD38-his (SEQ ID NO: 4); assay: as above
Procedure: as §3

[25] = target: T2, cynomolgus monkey CD38 expressed on the …; assay: flow cytometry (FACS) on 300.19 PreB cynoCD38 cells [Cont.]
Procedure: as §1, with “Clin” for “Clin.”, “μL/well” for “μl/well”, “easvCyte™” for “easyCyte™”, “BIOST@T-BINDING” for “BIOST®T-BINDING”, “BIOST@T-SPEED” for “BIOST®T-SPEED”

binding result [1]: no binding (tested: 10^4 pM)
B1: Control CD38xCD3 antibody (bispecific antibody)
benchmark heavy chain 1 (binds CD38): EVQLVESGGGLVQPGGSLRLSCAASGFTFSYSWMNWVRQAPGKGLEWVSEINPQSSTINYATSVKGRFTISRDNSKNTLYLQMNSLRAEDTAVYYCARYGNWFPYWGQGTLVTVSSASTKGPSVFPLAPSSKSTSGGTAALGCLVKDYFPEPVTVSWNSGALTSGVHTFPAVLQSSGLYSLSSVVTVPSSSLGTQTYICNVNHKPSDTKVDKKVEPKSCDKTHTCPPCPAPPVAGPSVFLFPPKPKDTLMISRTPEVTCVVVDVKHEDPEVKFNWYVDGVEVHNAKTKPREEEYNSTYRVVSVLTVLHQDWLNGKEYKCKVSNKALPAPIEKTISKAKGQPREPQVYTLPPSREEMTKNQVSLTCDVSGFYPSDIAVEWESDGQPENNYKTTPPVLDSDGSFFLYSKLTVDKSRWEQGDVFSCSVMHEALHNHYTQKSLSLSPGK
benchmark heavy chain 2 (binds CD3): not shown
benchmark light chain (binds CD38): DIVMTQSPSSLSASVGDRVTITCRASQNVDTWVAWYQQKPGQSPKALIYSASYRYSGVPDRFTGSGSGTDFTLTISSLQPEDFATYFCQQYDSYPLTFGGGTKLEIKRTVAAPSVFIFPPSDEQLKSGTASVVCLLNNFYPREAKVQWKVDNALQSGNSQESVTEQDSKDSTYSLSSTLTLSKADYEKHKVYACEVTHQGLSSPVTKSFNRGEC
notes: also called benchmark control CD38×CD3 bispecific antibody

fold lower apparent affinity than the parental mAb2 antibody [2]: 9 fold
fold lower apparent affinity than the parental mAb2 antibody [3]: 7.5 fold
EC50 [4]: 7.5 nM and 1.12 µg/mL
EC50 [5]: 4.4 nM and 0.663 µg/mL
Kd [6]: 4000 pM
Kd [7]: 18000 pM
Kd [8]: 4000 pM
Kd [9]: 4400 pM
B2: CD38VH1×CD28cvn×CD3mid IgG4 (other)
VH 1: QVQLVQSGAEVVKPGASVKVSCKASGYTFTSYAMHWVKEAPGQRLEWIGYIYPGQGGTNYNQKFQGRATLTADTSASTAYMELSSLRSEDTAVYFCARTGGLRRAYFTYWGQGTLVTVSS
VL 1: DIVLTQSPATLSLSPGERATISCRASQSVSSYGQGFMHWYQQKPGQPPRLLIYGASSRATGIPARFSGSGSGTDFTLTISPLEPEDFAVYYCQQNKEDPWTFGGGTKLEIK
VH 2: QVQLQESGPGLVKPSQTLSLTCTVSGFSLSDYGVHWVRQPPGKGLEWLGVIWAGGGTNYNPSLKSRKTISKDTSKNQVSLKLSSVTAADTAVYYCARDKGYSYYYSMDYWGQGTTVTVSS
VL 2: DIVLTQSPASLAVSPGQRATITCRASESVEYYVTSLMQWYQQKPGQPPKLLIFAASNVESGVPARFSGSGSGTDFTLTINPVEANDVANYYCQQSRKVPYTFGQGTKLEIK
VH 3: QVQLVESGGGVVQPGRSLRLSCAASGFTFTKAWMHWVRQAPGKQLEWVAQIKDKSNSYATYYADSVKGRFTISRDDSKNTLYLQMNSLRAEDTAVYYCRGVYYALSPFDYWGQGTLVTVSS
VL 3: DIVMTQTPLSLSVTPGQPASISCKSSQSLVHNNANTYLSWYLQKPGQSPQSLIYKVSNRFSGVPDRFSGSGSGTDFTLKISRVEAEDVGVYYCGQGTQYPFTFGSGTKVEIK
notes: also called CD38VH1×CD28evn×CD3mid; CD38VH1 × CD28cyn × CD3mid IgG4

EC50 (hCD38-his (SEQ ID NO: 2) [10]): 110 pM
EC50 (hCD38-his (SEQ ID NO: 2) [11]): 110 pM
EC50 (cCD38-his (SEQ ID NO: 4) [12]): 100 pM
EC50 [13]: 140 pM
EC50 [14]: 100 pM
EC50 (cCD38-his (SEQ ID NO: 4) [15]): 100 pM
EC50 [4]: 1 nM and 0.147 µg/mL
EC50 [5]: 0.5 nM and 0.0694 µg/mL
EC50 [16]: 330 pM
Kd [17]: 330 pM
Kd [18]: 750 pM
Kd [19]: 500 pM
Kd [20]: 1000 pM
EC50 [21]: 760 pM
EC50 [22]: 330 pM
Kd (hCD38-his (SEQ ID NO: 2) [23]): 332 pM
koff (hCD38-his (SEQ ID NO: 2) [23]): 0.00039 s⁻¹
Kd (cCD38-his (SEQ ID NO: 4) [24]): 3440 pM
koff (cCD38-his (SEQ ID NO: 4) [24]): 0.000784 s⁻¹
EC50 [25]: 0.76 nM and 0.114 µg/mL
B3: mAb2 (antibody, human IgG1, kappa, V domains shown)
VH: QVQLVQSGAEVVKPGASVKVSCKASGYTFTSYAMHWVKEAPGQRLEWIGYIYPGQGGTNYNQKFQGRATLTADTSASTAYMELSSLRSEDTAVYFCARTGGLRRAYFTYWGQGTLVTVSS
VL: DIVLTQSPATLSLSPGERATISCRASQSVSSYGQGFMHWYQQKPGQPPRLLIYGASSRATGIPARFSGSGSGTDFTLTISPLEPEDFAVYYCQQNKEDPWTFGGGTKLEIKR
notes: also called antiCD38_C2-CD38-1_VH1-VL1; CD38VH1
